Test: melting temperature; melt of duplexes
Details: sodium 0.0675 M; strand 1 µM

Substance	Tm
CGACGTGCGATATGTGCTG+CAGCACATGGCGCACGTCG (((((((((..((((((((+))))))))..)))))))))	57.4 °C
CGACGTGCAGCATGTGCTG+CAGCACATAACGCACGTCG ((((((((...((((((((+))))))))...))))))))	47.6 °C
CGACGTGCTTAATGTGCTG+CAGCACATCTCGCACGTCG ((((((((...((((((((+))))))))...))))))))	47.8 °C
CGACGTGCCACATGTGCTG+CAGCACATCTCGCACGTCG ((((((((.(.((((((((+)))))))).).))))))))	46.8 °C
CGACGTGCGAGATGTGCTG+CAGCACATATCGCACGTCG ((((((((((.((((((((+)))))))).))))))))))	60.4 °C
CGACGTGCAAAATGTGCTG+CAGCACATTAAGCACGTCG ((((((((..(((((((((+)))))))))..))))))))	52.4 °C
CGACGTGCGACATGTGCTG+CAGCACATTCGGCACGTCG ((((((((...((((((((+))))))))...))))))))	51.9 °C
CGACGTGCGACATGTGCTG+CAGCACATTAAGCACGTCG ((((((((...((((((((+))))))))...))))))))	53.3 °C
CGACGTGCTATATGTGCTG+CAGCACATGCTGCACGTCG ((((((((...((((((((+))))))))...))))))))	48.1 °C
CGACGTGCAGCATGTGCTG+CAGCACATTACGCACGTCG ((((((((...((((((((+))))))))...))))))))	45.1 °C
CGACGTGCAGGATGTGCTG+CAGCACATAAAGCACGTCG ((((((((...((((((((+))))))))...))))))))	50.6 °C
CGACGTGCTATATGTGCTG+CAGCACATTGTGCACGTCG ((((((((...((((((((+))))))))...))))))))	47.2 °C
CGACGTGCGTGATGTGCTG+CAGCACATAGGGCACGTCG ((((((((...((((((((+))))))))...))))))))	50.6 °C
CGACGTGCGTGATGTGCTG+CAGCACATCCTGCACGTCG ((((((((..(((((((((+)))))))))..))))))))	55.6 °C
CGACGTGCCTGATGTGCTG+CAGCACATGTCGCACGTCG ((((((((...((((((((+))))))))...))))))))	48 °C
CGACGTGCGCCATGTGCTG+CAGCACATATAGCACGTCG ((((((((...((((((((+))))))))...))))))))	52.4 °C
CGACGTGCCGTATGTGCTG+CAGCACATACTGCACGTCG ((((((((.((((((((((+)))))))))).))))))))	56.9 °C
CGACGTGCTCCATGTGCTG+CAGCACATACCGCACGTCG ((((((((...((((((((+))))))))...))))))))	46.3 °C
CGACGTGCGGCATGTGCTG+CAGCACATGTCGCACGTCG (((((((((.(((((((((+))))))))).)))))))))	63.5 °C
CGACGTGCAGTATGTGCTG+CAGCACATAGTGCACGTCG (((((((((.(((((((((+))))))))).)))))))))	55.1 °C
CGACGTGCGAGATGTGCTG+CAGCACATGAAGCACGTCG ((((((((...((((((((+))))))))...))))))))	55.4 °C
CGACGTGCACGATGTGCTG+CAGCACATCCGGCACGTCG ((((((((..(((((((((+)))))))))..))))))))	52.4 °C
CGACGTGCAGGATGTGCTG+CAGCACATCCCGCACGTCG ((((((((.((((((((((+)))))))))).))))))))	59 °C
CGACGTGCATAATGTGCTG+CAGCACATGCCGCACGTCG ((((((((...((((((((+))))))))...))))))))	50.9 °C

Substance	Tm
CGACGTGCCCCATGTGCTG+CAGCACATACCGCACGTCG ((((((((...((((((((+))))))))...))))))))	45.8 °C
CGACGTGCCGGATGTGCTG+CAGCACATTGCGCACGTCG ((((((((...((((((((+))))))))...))))))))	49.9 °C
CGACGTGCTAAATGTGCTG+CAGCACATACTGCACGTCG ((((((((...((((((((+))))))))...))))))))	49.7 °C
CGACGTGCGTGATGTGCTG+CAGCACATTAGGCACGTCG ((((((((.(.((((((((+)))))))).).))))))))	54.1 °C
CGACGTGCCGGATGTGCTG+CAGCACATGCAGCACGTCG ((((((((.(.((((((((+)))))))).).))))))))	53.1 °C
CGACGTGCTGTATGTGCTG+CAGCACATACCGCACGTCG ((((((((.((((((((((+)))))))))).))))))))	55.2 °C
CGACGTGCCGCATGTGCTG+CAGCACATTTTGCACGTCG ((((((((...((((((((+))))))))...))))))))	46.2 °C
CGACGTGCCACATGTGCTG+CAGCACATAACGCACGTCG ((((((((...((((((((+))))))))...))))))))	47.1 °C
CGACGTGCTGGATGTGCTG+CAGCACATACTGCACGTCG ((((((((.(.((((((((+)))))))).).))))))))	56.3 °C
CGACGTGCCAAATGTGCTG+CAGCACATTGGGCACGTCG (((((((((.(((((((((+))))))))).)))))))))	59.5 °C
CGACGTGCCGGATGTGCTG+CAGCACATGAAGCACGTCG ((((((((...((((((((+))))))))...))))))))	49.9 °C
CGACGTGCACGATGTGCTG+CAGCACATAGGGCACGTCG ((((((((.(.((((((((+)))))))).).))))))))	54.9 °C
CGACGTGCGGCATGTGCTG+CAGCACATACTGCACGTCG ((((((((.(.((((((((+)))))))).).))))))))	54.2 °C
CGACGTGCAGGATGTGCTG+CAGCACATACCGCACGTCG ((((((((.(.((((((((+)))))))).).))))))))	53.7 °C
CGACGTGCGAGATGTGCTG+CAGCACATCCAGCACGTCG ((((((((..(((((((((+)))))))))..))))))))	56.5 °C
CGACGTGCTCAATGTGCTG+CAGCACATACTGCACGTCG ((((((((...((((((((+))))))))...))))))))	48.7 °C
CGACGTGCGGAATGTGCTG+CAGCACATCTCGCACGTCG (((((((((..((((((((+))))))))..)))))))))	55.3 °C
CGACGTGCCATATGTGCTG+CAGCACATGTCGCACGTCG ((((((((.(.((((((((+)))))))).).))))))))	50.5 °C
CGACGTGCGAAATGTGCTG+CAGCACATACAGCACGTCG ((((((((...((((((((+))))))))...))))))))	53.3 °C
CGACGTGCGCGATGTGCTG+CAGCACATATGGCACGTCG ((((((((...((((((((+))))))))...))))))))	50.1 °C
CGACGTGCGGGATGTGCTG+CAGCACATCAGGCACGTCG ((((((((..(((((((((+)))))))))..))))))))	56.2 °C
CGACGTGCCAGATGTGCTG+CAGCACATCTTGCACGTCG ((((((((.((((((((((+)))))))))).))))))))	57 °C
CGACGTGCAGGATGTGCTG+CAGCACATCCTGCACGTCG (((((((((((((((((((+)))))))))))))))))))	66 °C
CGACGTGCGGAATGTGCTG+CAGCACATTCAGCACGTCG ((((((((.((((((((((+)))))))))).))))))))	60.2 °C

Substance	Tm
CGACGTGCTCAATGTGCTG+CAGCACATATGGCACGTCG ((((((((...((((((((+))))))))...))))))))	50.5 °C
CGACGTGCGACATGTGCTG+CAGCACATCGCGCACGTCG (((((((((..((((((((+))))))))..)))))))))	54.1 °C
CGACGTGCCCCATGTGCTG+CAGCACATTAAGCACGTCG ((((((((...((((((((+))))))))...))))))))	47.2 °C
CGACGTGCAGCATGTGCTG+CAGCACATCAGGCACGTCG ((((((((...((((((((+))))))))...))))))))	47.3 °C
CGACGTGCTCGATGTGCTG+CAGCACATAGTGCACGTCG ((((((((.(.((((((((+)))))))).).))))))))	49.8 °C
CGACGTGCCTTATGTGCTG+CAGCACATTCGGCACGTCG (((((((((..((((((((+))))))))..)))))))))	53 °C
CGACGTGCTAAATGTGCTG+CAGCACATCGTGCACGTCG ((((((((...((((((((+))))))))...))))))))	44.7 °C
CGACGTGCCTGATGTGCTG+CAGCACATAATGCACGTCG ((((((((.(.((((((((+)))))))).).))))))))	49.9 °C
CGACGTGCGACATGTGCTG+CAGCACATATTGCACGTCG ((((((((.(.((((((((+)))))))).).))))))))	51.5 °C
CGACGTGCAAAATGTGCTG+CAGCACATTGGGCACGTCG ((((((((..(((((((((+)))))))))..))))))))	54 °C
CGACGTGCTCCATGTGCTG+CAGCACATCGAGCACGTCG ((((((((((.((((((((+)))))))).))))))))))	55.2 °C
CGACGTGCCTGATGTGCTG+CAGCACATCGGGCACGTCG (((((((((.(((((((((+))))))))).)))))))))	61.7 °C
CGACGTGCGTGATGTGCTG+CAGCACATTACGCACGTCG ((((((((((.((((((((+)))))))).))))))))))	60.4 °C
CGACGTGCATTATGTGCTG+CAGCACATCGAGCACGTCG ((((((((...((((((((+))))))))...))))))))	47.4 °C
CGACGTGCATAATGTGCTG+CAGCACATGCGGCACGTCG ((((((((...((((((((+))))))))...))))))))	48.7 °C
CGACGTGCGATATGTGCTG+CAGCACATCAAGCACGTCG ((((((((...((((((((+))))))))...))))))))	52.1 °C
CGACGTGCCATATGTGCTG+CAGCACATGGAGCACGTCG ((((((((...((((((((+))))))))...))))))))	51.5 °C
CGACGTGCCGAATGTGCTG+CAGCACATTTGGCACGTCG (((((((((.(((((((((+))))))))).)))))))))	60.6 °C
CGACGTGCCTAATGTGCTG+CAGCACATCTAGCACGTCG ((((((((...((((((((+))))))))...))))))))	48.8 °C
CGACGTGCTAAATGTGCTG+CAGCACATTAAGCACGTCG (((((((((.(((((((((+))))))))).)))))))))	55.8 °C
CGACGTGCTTAATGTGCTG+CAGCACATATCGCACGTCG ((((((((...((((((((+))))))))...))))))))	48 °C
CGACGTGCTCTATGTGCTG+CAGCACATACAGCACGTCG (((((((((.(((((((((+))))))))).)))))))))	52.5 °C
CGACGTGCTAGATGTGCTG+CAGCACATTGAGCACGTCG (((((((((..((((((((+))))))))..)))))))))	54 °C
CGACGTGCAACATGTGCTG+CAGCACATGTGGCACGTCG ((((((((.((((((((((+)))))))))).))))))))	59.3 °C
